Earlier results on 1 substance are cited in article PMC6611588, “Quantitative high-throughput screening assays for the discovery and development of SIRPα-CD47 interaction inhibitors” (PLoS ONE, 2019).

pKd: −log10 of the molar value. Values joined by “and” are separate entries in the source; they are usually repeats but may differ in a detail not shown here. Equal entries are not always repeated.

The data set has as its target CD47 (Homo sapiens) (UniProt Q08722). The settings on record: cited from earlier work.

CD47 (Homo sapiens), sequence (Q08722 19-323): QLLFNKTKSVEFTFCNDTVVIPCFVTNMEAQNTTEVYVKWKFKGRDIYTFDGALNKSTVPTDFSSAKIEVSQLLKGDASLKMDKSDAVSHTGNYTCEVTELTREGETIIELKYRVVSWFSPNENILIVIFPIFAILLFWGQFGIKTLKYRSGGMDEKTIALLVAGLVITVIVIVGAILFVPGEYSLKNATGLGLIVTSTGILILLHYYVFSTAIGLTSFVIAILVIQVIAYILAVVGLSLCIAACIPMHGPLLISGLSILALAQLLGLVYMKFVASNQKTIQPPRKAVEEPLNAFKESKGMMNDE
SIRPα, sequence (P78324 31-373): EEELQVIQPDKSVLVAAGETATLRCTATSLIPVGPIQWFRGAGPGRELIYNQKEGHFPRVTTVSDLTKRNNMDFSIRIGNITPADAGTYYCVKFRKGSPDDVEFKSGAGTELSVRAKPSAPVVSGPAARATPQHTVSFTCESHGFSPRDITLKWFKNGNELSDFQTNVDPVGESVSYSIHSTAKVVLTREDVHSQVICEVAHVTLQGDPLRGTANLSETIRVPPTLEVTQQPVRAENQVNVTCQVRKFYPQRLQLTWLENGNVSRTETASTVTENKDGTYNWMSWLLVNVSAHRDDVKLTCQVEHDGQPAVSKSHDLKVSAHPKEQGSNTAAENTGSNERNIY

Regarding SIRPα (from UniProt P78324), the pKd is 6.52 and 6.55.
